Measurements reported in US20250341526A1, “NOVEL DYES” (Quantum-Si Incorporated, priority 2024, published 2025).

System: not listed separately
Experiment: Persistence of triplet state quenchers in solution
Assay type: physicochemical
Conditions: also in the presence of mineral oil
Text: FIGS. 11A-11B show the persistence of cyclooctatetraene (FIG. 11A) and COT-PEG3-sulfonate (triethylammonium salt) (FIG. 11B) in solution.
Cyclooctatetraene (COT)-based triplet state quenchers (TSQs) were used in place of or in addition to the currently used Trolox TSQ. TSQs can enhance photophysical properties of dyes in single-molecule studies, and the optimal TSQ can depend on the class of dye used. Trolox and COT quench triplet states by different mechanisms.
Water-soluble COT conjugates were made to improve solution stability of these TSQs (FIG. 11). The derivatives were made via various amide coupling reactions between COT-CO2H and the appropriate amine. COT-CO2H can be purchased or made in two steps from the parent COT compound.

| stability (persistence) in solution | Molecule |
| --- | --- |
| its concentration drops over time | C1=CC=CC=CC=C1 [unsubstituted COT, cyclooctatetraene] |

Same assay, conditions: sequencing buffer

| water solubility | Molecule |
| --- | --- |
| not fully water-soluble | C1=CC=CC=CC=C1 [unsubstituted COT, cyclooctatetraene] |

System: amino acid at a terminal position of a polypeptide
Experiment: not given
Conditions: Table 2; amino acid at terminal position (phosphotyrosine also internal); inferred from literature and/or demonstrated by the inventors; cited from earlier work

| Molecule | Binding Pref. |
| --- | --- |
| Escherichia coli leucyl/phenylalanyl-tRNA-protein transferase: amino acid recognition protein, SEQ ID NO: 111 (protein, listed as Escherichia coli) MRLVQLSRHSIAFPSPEGALREPNGLLALGGDLSPARLLMAYQRGIFPWFSPGDPILWWSPDPRAVLWPESLHISRSMKRFHKRSPYRVTMNYAFGQVIEGCASDREEGTWITRGVVEAYHRLHELGHAHSIEVWREDELVGGMYGVAQGTLFCGESMFSRMENASKTALLVFCEEFIGHGGKLIDCQVLNDHTASLGACEIPRRDYLNYLNQMRLGRLPNNFWVPRCLFSPQELE | K, R |
| PS625: amino acid recognition protein, SEQ ID NO: 185 (protein, listed as Saccharomyces eubayanus) MGDVHKHTGRNCGRKFKIGEPLYRCHECGCDDTCVLCIHCFNPKDHINHHVCTDICSEFTSGICDCGDEEAWNSSLHCKAEEQ | K, R, H |
| PS621: amino acid recognition protein, SEQ ID NO: 181 (protein, listed as Kluyveromyces marxianus) MHSKFSHAGRICGAKFKVGEPIYRCKECSFDDTCVLCVNCFNPKDHTGHHVYTTICTEFNNGICDCGDKEAWNHTLFCKAEEG | K, R, H |
| PS626: amino acid recognition protein, SEQ ID NO: 186 (protein, listed as Zygosaccharomyces parabailii) MYHVYKHSGRNCGRKFKVGEPIYRCHECGYDETCVLCIHCFNPKDHDSHHVYIDICSEFSTGICDCGDTEAFVNPLHCKAEED | K, R, H |
| PS623: amino acid recognition protein, SEQ ID NO: 183 (protein, listed as Kazachstania naganishii) MSKQFRHKGRNCGRKFRLGEPLYRCQECGYDDTCVLCINCFNPKDHEGHHIYTDICNDFTSGICDCGDEEAWLSPLHCKAEED | K, R, H |
| PS629: amino acid recognition protein, SEQ ID NO: 189 (protein, listed as Pichia pastoris) MCPNYKHHGRPCARQFKQGEPIYRCYECGFDETCVMCMHCFNREQHRDHEVSISIASSSNDGICDCGDPQAWNIELHCQSELD | K, R, H |
| PS622: amino acid recognition protein, SEQ ID NO: 182 (protein, listed as Kluyveromyces dobzhanskii) MHSRFNHAGRICASKFKVGEPIYRCKECSFDDTCVICVNCFNPKDHVGHHVYTSICSEFNNGICDCGDTEAWNHDMHCKADEN | K, R, H |
| PS627: amino acid recognition protein, SEQ ID NO: 187 (protein, listed as Zygosaccharomyces mellis) MPKYHQHSGRYCGRKFKVGEPIYRCHECGFDETCVICIHCFNAKDHETHHVSVSICSEYSTGICDCGDTEAFVNPLHCRAEEV | K, R, H |
| PS624: amino acid recognition protein, SEQ ID NO: 184 (protein, listed as Eremothecium sinecaudum) MPKNHNHKGRNCGRSFQPGEPLYRCQECAYDDTCVLCIRCFNPLDHVNHHVSTHICSEFNDGICDCGDVEAWNVELNCKAEED | K, R, H |
| PS620: amino acid recognition protein, SEQ ID NO: 180 (protein, listed as Saccharomyces cerevisiae) MGNMHIGTACTRLCFPSETIYYCFTCSTNPLYEICELCFDKEKHVNHSYVAKVVMRPEGRICHCGDPFAFNDPSDAFKCKN | K, R, H |
| PS628: amino acid recognition protein, SEQ ID NO: 188 (protein, Candida albicans) MSHRAYHKNSPCGRIFRKGEPIHRCLTCGFDDTCALCSHCFQPEYHEGHKVHIGICQRENGGVCDCGDPEAWTQELFCPYAVD | K, R, H |
